Bridges are numbered along the chain shown (N, C = ends). Where no end group is shown, it is not given here.
B1: recombinant human BMP-2 (ligand)
chain: QAKHKQRKRLKSSCKRHPLYVDFSDVGWNDWIVAPPGYHAFYCHGECPFPLADHLNSTNHAIVQTLVNSVNSKIPKACCVPTELSAISMLYLDENEKVVLKNYQDMVVEGCGCR
B3: bovine fetuin (other)
chain: IPLDPVAGYKEPACDDPDTEQAALAAVDYINKHLPRGYKHTLNQIDSVKVWPRRPTGEVYDIEIDTLETTCHVLDPTPLANCSVRQQTQHAVEGDCDIHVLKQDGQFSVLFTKCDSSPDSAEDVRKLCPDCPLLAPLNDSRVVHAVEVALATFNAESNGSYLQLVEISRAQFVPLPVSVSVEFAVAATDCIAKEVVDPTKCNLLAEKQYGFCKGSVIQKALGGEDVRVTCTLFQTQPVIPQPQPDGAEAEAPSAVPDAAGPTPSAAGPPVASVVVGPSVVAVPLPLHRAHYDLRHTFSGVASVESSSGEAFHVGKTPIVGQPSIPGGPVRLCPGRIRYFKI

What was measured:
[1] = target: bovine serum albumin (bovine, UniProt P02769); experiment: SPR (BIAcore), BMP-2 immobilized
Description: (§1) In this system, a purified protein serving as the ligand is covalently coupled to a carboxymethylated dextran surface, and binding molecules (i.e. the analyte) are passed in a fluid phase across the surface. Binding of the analyte to ligand causes a change in reflected light which is directly proportional to mass bound, and is measured in arbitrary response units (R.U.). Analyte-ligand binding is observed as both increasing response with time during the injection of analyte, and the difference in the position of the baseline before and after injection.

[2] = target: B3; experiment: SPR (BIAcore); analyte over immobilized cytokine
Description: as §1
(§2) Data was analyzed using the BIA-evaluation software (Pharmacia Biosensor). The association rate constant, $kass$, was calculated by first plotting the change in response with time versus response (i.e. dR/dT vs R). When the slope of the line from this graph is plotted versus analyte concentration (i.e d(dR/dT)/dR vs C), $kass$ is obtained from the slope of the line. The dissociation rate constant, $kdiss$, is obtained during the decrease in response with time after analyte injection is discontinued. Specifically, $kdiss$ was obtained from the slope of the line in a plot of $\ln(Rt1/Rtn)$ vs time. The affinity constants were calculated from K_D = kdiss/kass. Variance for $kass$ is standard error of the linear regression plot, and for $kdiss$ values are the mean ± range of 3 or more independent injections.
(§3) Data was analyzed using the BIA-evaluation software (Pharmacia Biosensor). The association rate constant, $kass$, was calculated by first plotting the change in response with time versus response (ie. dR/dT vs R).

[3] = target: T1, adult human fetuin/α2-HS glycoprotein (human, UniProt P02765); experiment: SPR (BIAcore); analyte over immobilized cytokine
T1 sequence: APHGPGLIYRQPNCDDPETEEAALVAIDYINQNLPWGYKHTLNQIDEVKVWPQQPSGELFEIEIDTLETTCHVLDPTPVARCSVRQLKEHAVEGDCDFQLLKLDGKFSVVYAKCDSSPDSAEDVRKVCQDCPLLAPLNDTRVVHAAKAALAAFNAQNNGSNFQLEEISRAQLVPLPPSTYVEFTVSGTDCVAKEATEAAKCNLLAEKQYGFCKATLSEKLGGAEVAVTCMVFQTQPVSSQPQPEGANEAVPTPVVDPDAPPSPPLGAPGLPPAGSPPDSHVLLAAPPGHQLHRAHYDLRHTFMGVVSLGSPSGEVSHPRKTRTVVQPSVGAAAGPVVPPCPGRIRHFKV
Description: as §1
(§4) Binding constants for fetuins and TRH1 peptide interactions with TGF-β and BMPs measured using the BIAcore and BIA-evaluation software (Pharmacia Biosensor). The change in response with time was plotted for each analyte concentration (ie. dR/dT vs R), and the slope of these lines were then plotted as a function of analyte concentration (i.e d(dR/dT)/dR vs C), where the slope yields $kass$. The dissociation rate constant, $kdiss$, is obtained after analyte injection is discontinued as the slope of $\ln(Rtl/Rtn)$ vs time. K_Ds are $kdiss/kass$. Variance for $kass$ is standard error of the linear regression plot, and for $kdiss$ values are the mean ± range of 3 or more independent injections.

[4] = target: B3; experiment: SPR (BIAcore); analyte over immobilized cytokine; repeated calculation
Description: as §2, §4

[5] = target: T2, purified human TGF-β1 (human, UniProt P01137); experiment: SPR (BIAcore); analyte over immobilized cytokine
Description: as §1, §2, §3

[6] = target: T2, purified human TGF-β1; experiment: SPR (BIAcore); analyte over immobilized cytokine; repeated calculation
Description: as §2, §4

[7] = target: B1; experiment: SPR (BIAcore)
[8] = target: B1; experiment: SPR (BIAcore); analyte over immobilized cytokine
Description: as §1, §2, §3

[9] = target: B1; experiment: SPR (BIAcore); analyte over immobilized cytokine; repeated calculation
Description: as §2, §4

## B1
[1]
  binding result: no binding (tested: 0.22, 0.29, 0.44, 0.59, 0.88 µM)
[2]
  Kd: 36 nM
[3]
  Kd: 51 nM
[4]
  Kd: 27 nM

B2: reduced and alkylated TRH1b peptide from TβRII (peptide)
peptide: CVAVWRKNDENITLETVCHD
modifications: also: Cys reduced and alkylated, agent not given here, exact limits not given here
[5]
  Kd: > 10000 nM
[6]
  Kd: > 10000 nM

## B3
[7]
  fold greater affinity than fetuin binding to TGF-β1: ~100 times

B4: cyclized TRH1b peptide from TβRII (peptide)
peptide: CVAVWRKNDENITLETVC
modifications: disulfide 1-18 (inferred); also: exact limits not given here, terminal residues may be removed
[5]
  Kd: 520 nM
  koff: 0.0019 s⁻¹
  kon: 3700 M⁻¹ s⁻¹
[8]
  Kd: > 10000 nM
[6]
  Kd: 1000 nM
  koff: 0.0023 s⁻¹
  kon: 2200 M⁻¹ s⁻¹
[9]
  Kd: > 10000 nM

Reference: patent US5981483, “Compositions comprising modulators of cytokines of the TGF-β superfamily” (Mount Sinai Hospital Corporation, dated 1999)
